Measurements reported in patent US20220380450A1 (AstraZeneca / MedImmune, published 2022).

Key:
[1] = biological target: T1, RAGE-Fc (R&D Systems #1145-RG) (UniProt Q15109 23-344, limits assumed); experiment: ELISA: biotinylated oxIL-33 on streptavidin plate, RAGE-Fc at 10 µg/mL, anti-human IgG HRP
T1 construct: Bought reagent; not shown: Fc part of the bought fusion (detected with anti-human IgG HRP)
Protocol: (§1) Plates were washed 3× with 200 μl PBS-T (PBS+1% (v/v) Tween-20) and blocked with 300 μl/well blocking buffer (PBS with 1% BSA (Sigma, A9576)) for 1 hour. […] Plates were washed with 200 μl PBS-T three times. […] Plates were washed 3× with PBS-T and developed with TMB, 100 μl/well (Sigma, T0440). The reaction was quenched with 50 μl/well 0.1M H₂SO₄. Absorbance was read at 450 nm on the Cytation Gen5 or similar equipment.

[2] = biological target: T2, EGFR-Fc (R&D Systems #344-ER-050) (UniProt P00533 25-645); experiment: ELISA: biotinylated HMGB1 on streptavidin plate, EGFR-Fc with untagged RAGE (Sino Biological 11629-HCCH) at 10 µg/mL, anti-human IgG HRP
T2 construct: Bought reagent; not shown: Fc part of the bought fusion (detected with anti-human IgG HRP)
Protocol: as §1

[3] = biological target: T1, RAGE-Fc (R&D Systems #1145-RG); experiment: ELISA, FIG. 7A: biotinylated HMGB1 on streptavidin plate, RAGE-Fc
Protocol: as §1

[4] = biological target: T3, epidermal growth factor receptor (EGFR), endogenous in NHBE, DHBE and A549 cells (human, UniProt P00533 25-1210); experiment: anti-EGFR (AF231) immunoprecipitation from NHBE lysate, LC-MS; cells stimulated with 30 ng/ml reduced IL-33-01 for 10 min; IL-33 not detected in complex with EGFR
T3 construct: whole, on cells; Endogenous receptor; also called EGF Receptor

T1 sequence (Q15109 23-344 limits assumed): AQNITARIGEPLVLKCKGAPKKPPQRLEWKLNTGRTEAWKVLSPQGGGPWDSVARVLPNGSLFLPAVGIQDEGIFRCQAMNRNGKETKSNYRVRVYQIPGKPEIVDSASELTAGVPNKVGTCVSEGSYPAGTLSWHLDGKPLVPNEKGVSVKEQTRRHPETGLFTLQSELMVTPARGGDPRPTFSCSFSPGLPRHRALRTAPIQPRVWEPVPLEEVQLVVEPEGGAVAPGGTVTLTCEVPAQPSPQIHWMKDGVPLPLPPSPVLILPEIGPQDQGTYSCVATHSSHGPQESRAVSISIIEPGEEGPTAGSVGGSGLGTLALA

B1: Avitag_IL-33-01 (oxidised IL-33) (ligand)
chain: MHHHHHHHHHHAAGLNDIFEAQKIEWHEAAIEGRSITGISPITEYLASLSTYNDQSITFALEDESYEIYVEDLKKDEKKDKVLLSYYESQHPSNESGDGVDGKMLMVTLSPTKDFWLHANNKEHSVELHKCEKPLPDQAFFVLHNMHSNCVSFECKTDPGVFIGVKDNHLALIKVDSSENLCTENILFKLSET
modifications: biotinylated on the Avitag with BirA; oxidised (disulphide bonded) form
notes: also called oxIL-33; biotinylated oxidised N-terminal tagged His10/Avitag IL33-01
Q: Does B1 bind [1]?
A: Result: binds

B2: HMGB1 (R&D systems 1690-HMB-050), biotinylated (ligand, UniProt P09429 1-215, looked up)
chain: MGKGDPKKPRGKMSSYAFFVQTCREEHKKKHPDASVNFSEFSKKCSERWKTMSAKEKGKFEDMAKADKARYEREMKTYIPPKGETKKKFKDPNAPKRPPSAFFLFCSEYRPKIKGEHPGLSIGDVAKKLGEMWNNTAADDKQPYEKKAAKLKEKYEKDIAAYRAKGKPDAAKKGVVKAEKSKKKKEEEEDEEDEEDEEEEEDEEDEDEEEDDDDE
modifications: biotinylated via free amines (EZ link Sulfo-NHS-LC-Biotin)
notes: Immobilised on streptavidin plates in the ELISA of section 10; called a known RAGE ligand / bona fide RAGE agonist
Q: Does B2 bind [2]?
A: Result: no binding (tested: 10 µg/mL)

Q: Does B2 bind [3]?
A: Result: binds

B3: Untagged IL33-01 (ligand)
chain: SITGISPITEYLASLSTYNDQSITFALEDESYEIYVEDLKKDEKKDKVLLSYYESQHPSNESGDGVDGKMLMVTLSPTKDFWLHANNKEHSVELHKCEKPLPDQAFFVLHNMHSNCVSFECKTDPGVFIGVKDNHLALIKVDSSENLCTENILFKLSET
notes: Reduced wild type form; also called reduced IL-33; WT IL-33
Q: Does B3 bind [4]?
A: Result: no binding
